Measured values taken from PMC11882435, “Thermodynamic modeling of RsmA - mRNA interactions capture novel direct binding across the Pseudomonas aeruginosa transcriptome”.

B1: rsaL BS1 mutant (ssRNA)
RNA: GGGAUAAUAAACGUCCGAAAAGAUCAGAGCAAUGGCUUCACACGAGAGAACACAGCCCCAAAACAUGGCCUUCCGGGCAAAGGCCACCCGCACCGCCCGCACUGAAAGCCAGGAAACUUUCUGGAGCCGCU
B2: rsaL BS2 mutant (ssRNA)
RNA: GGGAUAAUAAACGUCCGAAAAGAUCAGAGCAAUGGCUUCACACGAGAGAACACAGCCCCAAAACAUGGCCUUCCGGGCAAAGGCCACCCGCACCGCCCGACGGGAAAGCCAUACAACUUUCUGGAGCCGCU
B3: mvaT BS1 mutant (ssRNA)
RNA: GGGAUAAUACUUACAUGCCCGCCACCGCCACUCAGCACAGACAAGGUACCUGACAUGUCCCUGAUCAACGAAUAUCGCGCCCACACAGAAGCCAUCAAGGAACUUCAGGAGCGCCUGAAGUCCCUGGAACAAGACGACAAACUGAAAAAAGAAC
B4: mvaT BS2 mutant (ssRNA)
RNA: GGGAUAAUACUUACAUGCCCGCCACCGCCACUCAGCACAGACAAGGUACCUGACAUGUCCCUGAUCAACGAAUAUCGCGCCACGGAAGAAGCCAUCCAAUUACUUCAGGAGCGCCUGAAGUCCCUGGAACAAGACGACAAACUGAAAAAAGAAC
B5: mvaT BS3 mutant (ssRNA)
RNA: GGGAUAAUACUUACAUGCCCGCCACCGCCACUCAGCACAGACAAGGUACCUGACAUGUCCCUGAUCAACGAAUAUCGCGCCACGGAAGAAGCCAUCAAGGAACUUCAGGAGCGCCUGAAGUCCCUCUGACAAGACGACAAACUGAAAAAAGAAC

Target: RsmA (Pseudomonas aeruginosa, UniProt O69078 1-61)
Assay: filter binding; affinity unchanged vs WT; Filter binding: 10 mM Tris-HCl pH 7.5, 100 mM KCl, 10 mM MgCl2, 10 mM DTT, 10 ug/mL heparin, RNase inhibitor, 0.5 nM RNA, 37 C 30 min; Hill coefficient 2
Conditions: protein: recombinant; expressed in E. coli BL21; chain copies: 2; label: 5'-32P

RsmA, sequence (O69078 whole entry): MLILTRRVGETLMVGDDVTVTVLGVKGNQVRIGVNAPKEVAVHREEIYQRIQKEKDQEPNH

Binder | binding result
B1 | binds
B2 | binds
B3 | binds
B4 | binds
B5 | binds
